From patent US20210388087A1 (Chugai, published 2021)
Residue numbers refer to the chain shown, from its start.

B1: H183/L072 VL N53T (antibody, name in Kabat numbering, V domains shown)
VH: QVQLVESGGGLVQPGRSLRLSCAASGFTFSNAWMHWVRQAPGKGLEWVAQIKDKGNAYAAYYAPSVKGRFTISRDDSKNSIYLQMNSLKTEDTAVYYCHYVHYASASTVLPAFGVDAWGQGTTVTVSS
VL: DIVMTQSPLSLPVTPGEPASISCQASQELVHMNRNTYLHWYQQKPGQAPRLLIYKVSTRFPGVPDRFSGSGSGTDFTLKISRVEAEDVGVYYCAQGTSVPFTFGQGTKLEIK
notes: Dual-Ig
B2: H183/L072 VL N53W (antibody, name in Kabat numbering, V domains shown)
VH: B1 VH
VL: B1 VL with T58W
notes: Dual-Ig
B3: H183/L072 VL P56H (antibody, name in Kabat numbering, V domains shown)
VH: B1 VH
VL: B1 VL with T58N, P61H
notes: Dual-Ig
B4: H183/L072 VL P56T (antibody, name in Kabat numbering, V domains shown)
VH: B1 VH
VL: B1 VL with T58N, P61T
notes: Dual-Ig
B5: H183/L072 VL P56D (antibody, name in Kabat numbering, V domains shown)
VH: B1 VH
VL: B1 VL with T58N, P61D
notes: Dual-Ig
B6: H183/L072 VL P56G (antibody, name in Kabat numbering, V domains shown)
VH: B1 VH
VL: B1 VL with T58N, P61G
notes: Dual-Ig
B7: H183/L072 VL P95Q (antibody, name in Kabat numbering, V domains shown)
VH: B1 VH
VL: B1 VL with T58N, P100Q
notes: Dual-Ig
B8: H183/L072 VL P95F (antibody, name in Kabat numbering, V domains shown)
VH: B1 VH
VL: B1 VL with T58N, P100F
notes: Dual-Ig
B9: H183/L072 VL P56V (antibody, name in Kabat numbering, V domains shown)
VH: B1 VH
VL: B1 VL with T58N, P61V
notes: Dual-Ig
B10: H183/L072 VL P56K (antibody, name in Kabat numbering, V domains shown)
VH: B1 VH
VL: B1 VL with T58N, P61K
notes: Dual-Ig
B11: H183/L072 VL P95M (antibody, name in Kabat numbering, V domains shown)
VH: B1 VH
VL: B1 VL with T58N, P100M
notes: Dual-Ig
B12: H183/L072 VL P95D (antibody, name in Kabat numbering, V domains shown)
VH: B1 VH
VL: B1 VL with T58N, P100D
notes: Dual-Ig
B13: H183/L072 VL P95H (antibody, name in Kabat numbering, V domains shown)
VH: B1 VH
VL: B1 VL with T58N, P100H
notes: Dual-Ig
B14: H183/L072 VL P95N (antibody, name in Kabat numbering, V domains shown)
VH: B1 VH
VL: B1 VL with T58N, P100N
notes: Dual-Ig
B15: H183/L072 VL P95A (antibody, name in Kabat numbering, V domains shown)
VH: B1 VH
VL: B1 VL with T58N, P100A
notes: Dual-Ig
B16: H183/L072 VL P56Q (antibody, name in Kabat numbering, V domains shown)
VH: B1 VH
VL: B1 VL with T58N, P61Q
notes: Dual-Ig
B17: H183/L072 VL P56N (antibody, name in Kabat numbering, V domains shown)
VH: B1 VH
VL: B1 VL with T58N, P61N
notes: Dual-Ig
B18: H183/L072 VL P95R (antibody, name in Kabat numbering, V domains shown)
VH: B1 VH
VL: B1 VL with T58N, P100R
notes: Dual-Ig
B19: H183/L072 VL P56I (antibody, name in Kabat numbering, V domains shown)
VH: B1 VH
VL: B1 VL with T58N, P61I
notes: Dual-Ig
B20: H183/L072 VL P56W (antibody, name in Kabat numbering, V domains shown)
VH: B1 VH
VL: B1 VL with T58N, P61W
notes: Dual-Ig
B21: H183/L072 VL P95K (antibody, name in Kabat numbering, V domains shown)
VH: B1 VH
VL: B1 VL with T58N, P100K
notes: Dual-Ig
B22: H183/L072 VL P95L (antibody, name in Kabat numbering, V domains shown)
VH: B1 VH
VL: B1 VL with T58N, P100L
notes: Dual-Ig
B23: H183/L072 VL P56E (antibody, name in Kabat numbering, V domains shown)
VH: B1 VH
VL: B1 VL with T58N, P61E
notes: Dual-Ig
B24: H183/L072 VL P95I (antibody, name in Kabat numbering, V domains shown)
VH: B1 VH
VL: B1 VL with T58N, P100I
notes: Dual-Ig
B25: H183/L072 VL P56M (antibody, name in Kabat numbering, V domains shown)
VH: B1 VH
VL: B1 VL with T58N, P61M
notes: Dual-Ig
B26: H183/L072 VL P56R (antibody, name in Kabat numbering, V domains shown)
VH: B1 VH
VL: B1 VL with T58N, P61R
notes: Dual-Ig
B27: H183/L072 VL P95G (antibody, name in Kabat numbering, V domains shown)
VH: B1 VH
VL: B1 VL with T58N, P100G
notes: Dual-Ig
B28: H183/L072 VL P56L (antibody, name in Kabat numbering, V domains shown)
VH: B1 VH
VL: B1 VL with T58N, P61L
notes: Dual-Ig
B29: H183/L072 VL P56A (antibody, name in Kabat numbering, V domains shown)
VH: B1 VH
VL: B1 VL with T58N, P61A
notes: Dual-Ig
B30: H183/L072 VL P56S (antibody, name in Kabat numbering, V domains shown)
VH: B1 VH
VL: B1 VL with T58N, P61S
notes: Dual-Ig
B31: H183/L072 VL P95E (antibody, name in Kabat numbering, V domains shown)
VH: B1 VH
VL: B1 VL with T58N, P100E
notes: Dual-Ig
B32: H183/L072 VL N53V (antibody, name in Kabat numbering, V domains shown)
VH: B1 VH
VL: B1 VL with T58V
notes: Dual-Ig
B33: H183/L072 VL P56F (antibody, name in Kabat numbering, V domains shown)
VH: B1 VH
VL: B1 VL with T58N, P61F
notes: Dual-Ig

Target: T1, Human CD137 ECD (human)
T1 construct: entry includes C-terminal His-tag and biotin acceptor peptide; also called human CD137 extracellular domain; 4-1BB
Experiment: Biacore SPR, vs parent H183/L072

T1 sequence (chain, as listed by the source limits assumed): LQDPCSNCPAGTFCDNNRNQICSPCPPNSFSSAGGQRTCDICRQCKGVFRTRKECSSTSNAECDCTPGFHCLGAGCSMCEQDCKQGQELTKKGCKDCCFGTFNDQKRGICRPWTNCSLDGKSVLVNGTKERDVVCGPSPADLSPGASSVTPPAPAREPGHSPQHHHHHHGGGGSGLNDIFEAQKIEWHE

| fold change of affinity [fold] | Binder |
| --- | --- |
| 0 | B1 |
| 0 | B2 |
| 0 | B3 |
| 0.2 | B4 |
| 0.2 | B5 |
| 0.1 | B6 |
| 0 | B7 |
| 0 | B8 |
| 0 | B9 |
| 0 | B10 |
| 0 | B11 |
| 0 | B12 |
| 0 | B13 |
| 0 | B14 |
| 0 | B15 |
| 0.2 | B16 |
| 0.2 | B17 |

| fold change of affinity [fold] | Binder |
| --- | --- |
| 0 | B18 |
| 0.1 | B19 |
| 0 | B20 |
| 0 | B21 |
| 0 | B22 |
| 0.1 | B23 |
| 0 | B24 |
| 0.2 | B25 |
| 0 | B26 |
| 0 | B27 |
| 0.1 | B28 |
| 0.1 | B29 |
| 0.1 | B30 |
| 0 | B31 |
| 0.5 | B32 |
| 0 | B33 |
